Test results published in the DeepSol protein solubility set.

test: soluble on expression in E. coli; label from the status in PepcDB or PDB records

Q: With “RFEHSLGVYHLADRALAHLDISGTRADTVRAAALLHDIGHGPYGHQTEGIIQRRLDRHHDDVAHLVSNGEPGAVLAAHGLDPDRVAALVAGHGKLGQLVAGELDVDRMDYLVRD” as the sequence, how does the “soluble on expression in E. coli” value read?
A: soluble

Q: Which “soluble on expression in E. coli” value does the source give for “MLDGLFNWAIARNIMNYNPLPTDKPNRPQGFIPYIYKREELKKIIDKSMTYRSFYTTFYPETIRGIIMLTYLWGLRPSETLGIEMADVHLGTDNYIVIKQMKFYNTRIVTFNDRSLLL” here?
A: not soluble

Q: With “MSDYENDDECWNVLEGFRVTLTSVIDPSRITPYLRQCKVLNPDDEEQVLSDPNLVIRKRKVGVLLDILQRTGHKGYVAFLESLELYYPQLYKKVTGKEPARVFSMIIDASGESGLTQLLMTEVMKLQKKVQDLTALLSSKDDFIKELRVKDSLLRKHQERVQRLKEECEAGSRELKRCKEENYDLAMRLAHQSEEKGAALMRNRDLQLEIDQLKHSLMKAEDDCKVERKHTLKLRHAMEQRPSQELLWELQQEKALLQARVQELEASVQEGKLDRSSPYIQVLEEDWRQALRDHQEQANTIFSLRKDLRQGEARRLRCMEEKEMFELQCLALRKDSKMYKDRIEAILLQMEEVAIERDQAIATREELHAQHARGLQEKDALRKQVRELGEKADELQLQVFQCEAQLLAVEGRLRRQQLETLVLSSDLEDGSPRRSQELSLPQDLEDTQLSDKGCLAGGGSPKQPFAALHQEQVLRNPHDAGLSSGEPPEKERRRLKESFENYRRKRALRKMQKGWRQGEEDRENTTGSDNTDTEGS” as the sequence, how does the “soluble on expression in E. coli” value read?
A: soluble

Q: Which “soluble on expression in E. coli” value does the source give for “GHHHHHHAIAENLYFQSHGHGGYDSDFSDDEHCGESSKRKKRTVEDDLLLQKPFQKEKHGKVAHKQVAAELLDREEARNRRFHLIAMDAYQRHRKFVNDYILYYGGKKEDFKRLGENDKTDLDVIRENHRFLWNEEDEMDMTWEKRLAKKYYDKLFKEYCIADLSKYKENKFGFRWRVEKEVISGKGQFFCGNKYCDKKEGLKSWEVNFGYIEHGEKRNALVKLRLCQECSIKLNFHHRRKEIKSKKRKDKTKKDCEESSHKKSRLSSAEEASKKKDKGHSSSKKSEDSLLRNSDEEESASESELWKGPLPETDEKSQEEEFDEYFQDLFL” here?
A: soluble

Q: Which “soluble on expression in E. coli” value does the source give for “MGSDKIHHHHHHMRLNLRQIEVFRAIMLTGSISGAAKLLHVSQPAVSRLISYAEQRLGLALFERIKGRLYPTPEAQRLFVEVNAVYQGVQRVNEIAEDLIENRMGHLRIACSPNLGQSLLPRAIAAFYERLPDVRIILHTMIPNVLLQAVLTQQVELGIAFLQDTHPNVESQLLYENRMVAAVPASHPFARRKTLAVRDLANQPLIGYGSDIPLGQLVRRLFSDESLVPQVKVEVQQAHVACALAQAGTGIALIDELTVAGPVWPQIVVKPIVPTLAAPVSVLHPVPTPLSRLAHAFIDTLHSLAAHA” here?
A: not soluble

Q: Which “soluble on expression in E. coli” value does the source give for “MGSDKIHHHHHHMHHRSSPLSRCLNRPSLSENRLVERACLSVGRRPSSSRSRRQHAGRLALLLGTLAPAVVLAQAAPDTVAMPQGINLGGTSFMDGFGSTTPGWTVLEYLRYYDLDAIKNARGDNSPAFRDPQVGVSALLTQLIYVTPYSLGRGSLSFNTIIPLVNYDTSFAADSPVRLRSNGFGMGDISFGPALQMPPVMRDGRVFFFQRFALDLFAPVGKFDRDIAINQGTGFWSIAPQWAFTVQPTDNWEISARINYLYNFRTDRAGGVPPIPGFRFRNGQAGDAVWVNFASSVKVSEQLRVGVNGYFLQQLKDNRTNGERVADSKRMQLYLGPGLSWRVDAKNLFNLNLYIPLDVENSVAGNSVNLMYVHSL” here?
A: not soluble

Q: Which “soluble on expression in E. coli” value does the source give for “MGSDKIHHHHHHMYGVMIMKLKTNVFHFTPFSKKQLQVLTWWVNPSTKDSEAIICDGSVRAGKTVIMSLSYVMWAMHTFNGQQLGMAGKTIGSFRRNVLRPLKQMLAGRGYKVIDHRTDNMFEVVKNGKANYFFIFGGKDEASQDLVQGLTAAGFFFDEVALMPQSFVNQATARVSVSGGKYWFNMNPEGPYHWFKLNWIDDLKGKRALRIHFRMEDNPSLSEDVIGRYKRNYSGVFYQRYILGLWVMSEGVIYDNFNRETMVVSEPPGRCTKYYVSVDYGTQNPTVFLLWGFYNGVWYCLKEYYYDGRHSARQKTDDQYANDLDEFVGNINARIIIDPSAASFIAVLRNRHYRIIRADNDVLNGIRETQSAMNNGLIKFTDNLPNLFKELASYIWDDKASSNGEDKVIKEHDHAMDSMRYFVYMVLRHNNKAKVIKNKYF” here?
A: not soluble

Q: With “MTEYKLVVVGDGGVGKSALTIQLIQNHFVEEYDPTIEDSYRKQVVIDGETCLLDILDTAGQEEYSAMRDQYMRTGEGFLLVFAVNEAKSFENVANYREQIRRVKDSDDVPMVLVGNKCDLSSRSVDFRTVSETAKGYGIPNVDTSAKTRMGVDEAFYTLVREIRKHRERHDNNKPQKKKKCQIM” as the sequence, how does the “soluble on expression in E. coli” value read?
A: not soluble

Q: With “MTKITVVGAGSWGTALAMVLADNGHDVRIWGNRSELMDEINTKHENSRYLPGITLPSTIVAYSSLEEALVDVNVVLIVVPTKAYREVLQDMKKYVAGPTTWIHASKGIEPGTSKRISEVIEEEIPEDLIKDVVVLSGPSHAEEVGLRQATTVTSAAKRMEAAEEVQDLFMNSYFRVYTNPDIVGVELGGALKNIIALAAGITDGLGLGDNAKAALMTRGLTEIARLGRKMGGNPLTFAGLTGMGDLIVTCTSVHSRNWRAGNMLGKGHSLEEVLESMGMVVEGVRTTKAAHELAEKMEVEMPITAALYDVLFNGNNVKDAVGSLMGRVRKHEVEAIPDLL” as the sequence, how does the “soluble on expression in E. coli” value read?
A: not soluble

Q: For “MARPIATHDNTFTKAYLQQHCGDLLSFDGQGDLSGWLDDVLTGAGRLNESMASNTKPVSPYLILTQLLTHDTLTVSAVQESLSRKRVALGEPMVSTRYARYVYATVVSASKSVQYHASKAGS”, which “soluble on expression in E. coli” value is on record?
A: not soluble

Q: With “MNINEILKKLINKSDLEINEAEELAKAIIRGEVPEILVSAILVALRMKGESKNEIVGFARAMRELAIKIDVPNAIDTAGTGGDGLGTVNVSTASAILLSLVNPVAKHGNRAVSGKSGSADVLEALGYNIIVPPERAKELVNKTNFVFLFAQYYHPAMKNVANVRKTLGIRTIFNILGPLTNPANAKYQLMGVFSKDHLDLLSKSAYELDFNKIILVYGEPGIDEVSPIGNTFMKIVSKRGIEEVKLNVTDFGISPIPIEKLIVNSAEDSAIKIVRAFLGKDEHVAEFIKINTAVALFALDRVGDFREGYEYADHLIEKSLDKLNEIISMNGDVTKLKTIVVKSSG” as the sequence, how does the “soluble on expression in E. coli” value read?
A: soluble

Q: With “MSLSKREEWAQGFILNLQSGYTQGTVGFGLDAMGMLGVKLDSGRGRSGTGLLPKDSDGRAPDTYSKLGLTAKVKVSQSELKVGTLIPKLPSVQPNNGRIFPQIFEGALLTSKEIKDLGFTAGRLEKTKIRDSSDSEDLALNDKNGRFAGVSADHFDLGGLDYKLTDQLTASYHYSNLQDVYRQHFVGLLHSWPIGPGELTSDLRFARSTDSGSAKAGGIDNKSLNGMFTYSLGNHAFGAAWQRMNGDDAFPYLEGSNPYLVNFVQVNDFAGPKERSWQLRYDYDFVGLGIPGLTFMTRYVKGDNVELAGQSGEGREWERNTELQYVFQSGALKNLGIRWRNATFRSNFTRDIDENRLIVSYTLPIWEGHHHHHH” as the sequence, how does the “soluble on expression in E. coli” value read?
A: not soluble

Q: Which “soluble on expression in E. coli” value does the source give for “MSLRPATDSPPLCAPPGAEVRAPSFVMPAGACDTHAHVISGDLERYPLVPDRSYTPPPAPEALYLEVLRAMGMQRGVLVQPSVYGTDNRYMLEVLQRHQDQLRGVAVVDEHVGDDELAHMHALGVRGVRINVLFRGGVNLDLMEHLAHRIADLGWHMQFLIDVRLLSEIEARMAKLPCAVVIDHFGHFPAHLGIKEAGFELLLRNVAEHGWWVKLSGAYRLSDQRPDYADTDALAHALLAVAPERMVWGSDWPHVALESTPDTSSLLDRLLSWAPSERQRQSILVDNPGALYDFKEGHHHHHH” here?
A: soluble

Q: Which “soluble on expression in E. coli” value does the source give for “MNEMWLHRADLAESAINERHASRLWMLPRTNLAVVAWPPTAKERLFYRWHYWWQAHYLDCLIDAASRRTTKARKQRIRDTIVGIRLRNLGRLTKNNYYDDKSWLALALDRERRLNKRAKREYLRVLEGNIAAGQDDIQGVLPWRVGEHFFNVPTNGPAAIMLARNGEVEQARKLVDWIFDNLINDKGLVMDGLRMSMRGPEIVDPVYPYCQGVVIGACIEIAEALPFEESVQYLAHARAVIHAVAKEMATPEGVINAATGDGDGGLFKGILMRYLADAAVRLPEDGPANIATKKIAKRLVMASAESVWEHRLEVDGLPVFATDWCDDARLPHNYGVGGSALSDIVRVVRIDERDLSVQLSGWMLLEAAARVSLVDLEHHHHHH” here?
A: soluble

Q: Which “soluble on expression in E. coli” value does the source give for “MAQAKHKQRKRLKSSCKRHPLYVDFSDVGWNDWIVAPPGYHAFYCHGECPFPLADHLNSTNHAIVQTLVNSVNSKIPKACCVPTELSAISMLYLDENEKVVLKNYQDMVVEGCGCR” here?
A: soluble

Q: With “MSLRSDSFEILRDCRALFLKHLGALLLDSGIISGSAIRAIQEGAGAYFDEMVSTTRRGSFSEEAHGLTSSRITLVGEDDLELGIRLDNLSARLFETTGGSLWRTHLRFVTLLRRPDLPKSANPIGPKGICQGLTTMFAASGASSIEQKLALLDRIEVYLLANLPGLYAEINDFLDRGGIEAAQATILGSPDGPKQADQSSANPLLALQQQLLARLPGGIASIQPPTGTGGAAASLLSQASLEQLIFRLNELDRQGAFRAQFKPGTSLSTESLIPELFSGSTAKASLPKALNSAELGIPSTATEGLAIDTLAIIFEAIFSEPTLPDTLKAAISSLQITLLKMAMKDASLFTDDKHPARLVIDRMGQAVLGLPTDVPARHPVCARLFEIASQLRSGNGDISAFQSALTQLDALVAERNNELAKSAAAYLPLLRQLDRRDEASIQTRHILDKLIEQKPPEAVQAFLNESWRKVLQLVWLENGPDSSQWQAHVTAIEELLWSFQPKTDPAERKSLAHRLPNILKLLKTGMERIGLPTEAQEAFLDDCFTLQTQALRAAPAAETGATSVIAATGLHASGSETVYGDVQSGQFVLNTLDFSDYQPGPARSLSCAIGDWLELRIDDSTTRVARICYISPNSQRTLLLNPDFGLALAIHPAILDRQLRAGEARIRSASSLFEIAASRALQKTTTNEGHHHHHH” as the sequence, how does the “soluble on expression in E. coli” value read?
A: soluble

Q: For “DGYWYGDYYGVMSFGVNTDLVQEVPKSWEALLDSQYANAFALAGDPRASNQAILAVMSAGIADGTEPGEASGKKGLEFFGKLNKAGGFVPVIGKAGTIAQGQTPIVAAWDYNLLSWRDELKGNPPMEVVIPEGPSLAGVYVQAISAFAPHPNAAKLWMEYLYS”, which “soluble on expression in E. coli” value is on record?
A: not soluble

Q: With “MSDKFNQFINRVLSHEGGYANHPKDPGGETNWGITKRTAQANGYNGSMRAMTREQAISIYRKAFWERYRADQMPEAVAFQFFDACVNHGYGNAARMLQRAAGVPDDGVIGAVSLKAINSLPENDLLLRFNAERLVFYTKLGTFTSFGKGWVRRVAQNLIHASADNTD” as the sequence, how does the “soluble on expression in E. coli” value read?
A: soluble

Q: With “MFLDMLSLIRGQKIKLNDALQGQSSFYIQIHYQAAFDLDIASFGLDSQYRLSDERYMTFYNQPETPCQAVRLIENQNKCSRFLVDLAKLPATIQHLVLTAAIDGQNIMSQLQQVTVQILNLQLQPIAELKLDASIFDQERATMLIEIYRKEGIWRLAAIGQGFNAGLAALIQHFGGEVAEEPTAQQTTPVAPQSNIDLKKKLSLQKAEKTGNASIIDLTKKSLVQLEKKKLLGVTARVALVLDASGSMDGQYRRGDVQKVVNRLMPLAIHFDDDGSFECWAFAAETTQLDDVTLSNVNDFINSTQRGWKNWQVGARYNEEIPAIEAVINYFQKFQDQIPTYVLFISDGGVGSRRQMQKILSQAAKLPIFWQFVGIGGRNYGALEKLDEMSGRIVDNCNFFSLDRIDGVSDERLYELLLQEFPDWLIAARQHQIVRNLEHHHHHH” as the sequence, how does the “soluble on expression in E. coli” value read?
A: not soluble
